This series is described as follows: soluble on expression in E. coli; label from the status in PepcDB or PDB records.
In the case of “MGSDKIHHHHHHMIPRLELRSITKCYPGTVANDAVSLSILPGEIHAVLGENGAGKSTLMKIIYGAAQADSGEIYCDGRRIEAHNPAISRSLGIEMVYQHFALFESVSVVENIALAVKGTFDLDRLAAEIKTLSARYGMPIDPHRRVHDLSVGERQRVEIVRCLLQSPKLLILDEPTSVLTPQAVVKLFETLRQLASEGCSIVYISHKLDEVQELCDTATVLRNGKVTGTAKPKESTSLELARMMVGSQLPQMHVSPSAPSAKPLLEVRGLSAPARDKYGTELTDVSLEVHGGEIVGLAGVSGNGQAELIALLSGERTHPRAETILIGGRPSGHLNAGERRKLGMAFVPEERLGRGAVPPHALWENAVLTAHRAGLVRNALVDRRRAGEFARHIIERFKVKANGPQASAQSLSGGNLQKFIVGRELTLEPKILLVSQPTWGVDVGAAAFIRQTLVDLSRGGAAVLVVSEELDELFEICDRLLVISNGRVSPPLIRKQTNREEIGLLMTRVGHGETRRSEVALED”, the “soluble on expression in E. coli” value is given as “not soluble”. On to “MGSDKIHHHHHHMKKFYDEMHASGDKVREHYAGYERWLAQQPHESMKGHRDEAEMIFRRVGITFAVYGAKDEDGSGTERLIPFDLIPRIIPAQEWREMEKGLRQRVNALNRFIHDVYHDQEIIKAGIVPGEQVFKNAQFRPEMMGVDVPGNVYSQIAGIDIVRAANPDGSGNYYVLEDNLRVPSGVSYMLENRKMMMRLFPELFSSHRVAPVAHYPDLLLDTLRAVAPPGVAEPTVVVMTPGMYNSAYFEHAFLAQQMGVELVEGQDLFVKDNYLYMRTTQGPRRVDVIYRRIDDDFLDPKAFRADSTIGCAGLLSVYRAGNVNLCNAIGTGVADDKSIYPYVPKMIEFYLGEKPILNNVPTYLCRESEDLQYVLAHLGELVVKEVHGAGGYGMLVGPAASKAEIEEFRTQLVANPSNYIAQPTLALSTCPTFVESGIAPRHIDLRPFVLSGKTVQMVPGGLTRVALKEGSLVVNSSQGGGTKDTWMLEA”, for which the “soluble on expression in E. coli” value is reported as “not soluble”. As for “MLALGIEGTAHTLGIGIVSEDKVLANVFDTLTTEKGGIHPKEAAEHHARLMKPLLRKALSEAGVSLDDIDVIAFSQGPGLGPALRVVATAARALAVKYRKPIVGVNHCIAHVEITKMFGVKDPVGLYVSGGNTQVLALEGGRYRVFGETLDIGIGNAIDVFARELGLGFPGGPKVEKLAEKGEKYIELPYAVKGMDLSFSGLLTEAIRKYRSGKYRVEDLAYSFQETAFAALVEVTERAVAHTEKDEVVLVGGVAANNRLREMLRIMTEDRGIKFFVPPYDLCRDNGAMIAYTGLRMYKAGISFRLEETIVKQKFRTDEVEIVWHHHHHH”, the “soluble on expression in E. coli” value is recorded as “soluble”. The same measure for “MKKIKTISTLVAGLGIAFLGHTTHADAAENNNQQQSTHNYSTTEVSFSNSGNLYTSGQCTWYVYDKTGGKIGSTWGNANSWATAAQAAGFTVNNTPEEGAIMQSSEGAFGHVAFVESVNNDGSITVSEMNYDGGPFAISTRTISASEASSYNYIHLNLEHHHHHH”: “not soluble”; for “MIFMRKVVAEVSIIPLGKGASVSKYVKKAIEVFKKYDLKVETNAMGTVLEGDLDEILKAFKEAHSTVLNDVDRVVSSLKIDERKDKENTIERKLKAIGEL”: “soluble”; for “ADEFGNGDALDLPVGKDAVNSLIRENSHIFSDTQCKVCSAVLISESQKLAHYQSRKHANKVRRYMAINQGEDSVPAKKFKAAPAEISDGEDRSKCCPVCNMTFSSPVVAESHYIGKTHIKNLRLREQ”: “soluble”. The same measure for “GPGSMSFKPTISVHATPQELSAAGCRKIVEIIETSGSQQWPLSIALAGGSTPKMTYARLHDEHLNLLREKRALRFFMGDERMVPADSTDSNYNMAREVLLHDIPDDLVFPFDTSAVTPSAEATSADAMRVAEAYGKQLASLLPLKSVGEAGAKVPVFDVVLLGLGSDGHTASIFPGSQAEKETDGKVVVSVGFPSETMKPKVWRVTLSPATIMQARNVIVLATGAEKKWVVDGILADTAHKAPVARFLRGCEGNVSFLLDKEIAENLAKF”: “soluble”; for “MAHHHHHHMRCHVMGPSGHKSEYHCATLLGNWQEERRSFGFVDPAREPLSYMTVYKDSFRGTKTDEELANAKPPSCFHENALPELLFYHNEITNPPKNLLTVNELSYTNAKGGEEVNTLHDILHKEGVSKKRDKTIAIRRELGFIGYGAPHEGSLLASKGATATPLDYTMRCGTTTDQNFLESTRGGCYKPPVIPAIGRMQEKQRLLTTKNVTVDATGEYLKDNIDEYPATSSECWGMFMKFTDNMKGKKLRECYED”: “not soluble”. Under “MQKDYQKLIVYLCDFLEKEVQKRGFKKVVYGLSGGLDSAVVGVLCQKVFKENAHALLMPSSVSMPENKTDALNLCEKFSIPYTEYSIAPYDAIFSSHFKDASLTRKGNFCARLRMAFLYDYSLKSDSLVIGTSNKSERMLGYGTLFGDLACAINPIGELFKTEVYELARRLNIPKKILNKPPSADLFVGQSDEKDLGYPYSVIDPLLKDIEALFQTKPIDTETLAQLGYDEILVKNITSRIQKNAFKLELPAIAKRFNPELEHHHHHH” stands “soluble”. With “MAHHHHHHMPSPQSLTGTPRSLQHAPLPAQVVRDALPLRRDVSDLLPVEQLRVLHVLTIAGMPRPHNTHSATISCRLSSPIMSATPNAYWRTCSMRCISVPSLCLEQTLPSSQSTAWMPREAADRSSVCGRSKCAETTATLTPSDISTHSTLPHKRAVPWEREVRRTVLA”, the “soluble on expression in E. coli” value is on record as “not soluble”.

In the case of “MSLGETYAPQCAGPAPEPRTLPRTLPDGACDCHFHVFGDENGQPFSPHRSYTPPPAPLEAFQRVQKTLGLSRGVIVQPSVYGADNSTTLAALKEAGSAFRGVVVIDADTDTETLWAMHRLGVRGVRVNLIFKSGVEVSDVAALAEKVAPLGWHLQLLIDITEFADLYETVASLPVAVVIDHMGHMPTSCGLGHPGFTDLLRLLKEGRVWVKLSGAYRFTASKDFPYDDVTPYARALIEANPNRLLWASDWPHPCIPVPMPNDASLLEMLFNWVENDDALIKQILVDNPAKLYGEGHHHHHH”, the “soluble on expression in E. coli” value is recorded as “not soluble”. Under “MTEEFNESMINDIKEGDKVTGEVQEIEEKQVIVAVNGAKFNGIIPISQLSTHHIDNPSDAVKVGDEIGAYVTKVEYDEENETGAYILSKRQLETEKSYEFLQEQLDNNQTIEAKVTEVVKGGLVVDVGQRGFVPASLISTDFIEDFSDFEGQVLKLKVEELDPANNRVILSRKAVEALENAEKKDELLESLNEGDVIEGKVARLTNFGAFVDIGGVDGLVHVSELSHEHVKSPEDVVSIGETVNVKIKSVDKDSERISLSIKDTLPSPFESIKGEFNEGDVIEGTVVRLANFGAFVEIKPGVQGLVHISEISHSHIGSPSEALEPGQVVSVKVLGVDVENERISLSIKATLPNENVIESDSETTQSYLDNGSDDEDNPTLGDVFGDKLKDFKFLEHHHHHH” stands “soluble”; under “SLTQIQPGVEKFIKDFNDAKKKGEHAYDMTLSYQNFDKGFFNSRFQMQMTFDNGAPDLNIKPGQKVVFDVDVEHGPLPITMLMHGNVIPALAAAKVNLVNNELTQPLFIAAKNKSPVEATLRFAFGGSFSTTLDVAPAEYGKFSFGEGQFTFNGDGSSLSNLDIEGKVEDIVLQLSPMNKVTAKSFTIDSLARLEEKKFPVGESESKFNQINIINHGEDVAQIDAFVAKTRLDRVKDKDYINVNLTYELDKLTKGNQQLGSGEWSLIAESIDPSAVRQFIIQYNIAMQKQLAAHPELANDEVALQEVNAALFKEYLPLLQKSEPTIKQPVRWKNALGELNANLDISIADPAKSSSSTNKDIKSLNFDVKLPLNVVTETAKQLNLSEGMDAEKAQKQADKQISGMMTLGQMFQLITIDNNTASLQLRYTPGKVVFNGQEMSEEEFMSRAGRFVH”, “soluble”. Under “SGEEANDDKKPTTKFELERETELRFEVEASQSVQLELLTGMAEIFGTELTRNKKFTFDAGAKVAVFTWHGCSVQLSGRTEVAYVSKDTPMLLYLNTHTALEQMRRQAEKEEERGPRVMVVGPTDVGKSTVCRLLLNYAVRLGRRPTYVELDVGQGSVSIPGTMGALYIERPADVEEGFSIQAPLVYHFGSTTPGTNIKLYNKITSRLADVFNQRCEVNRRASVSGCVINTCGWVKGSGYQALVHAASAFEVDVVVVLDQERLYNELKRDLPHFVRTVLLPKSGGVVERSKDFRRECRDERIREYFYGFRGCFYPHAFNVKFSDVKIYKVGAPTIPDSCLPLGMSQEDNQLKLVPVTPGRDMVHHLLSVSTAEGTEENLSETSVAGFIVVTSVDLEHQVFTVLSPAPRPLPKNFLLIMDIRFMDLK” stands “not soluble”; under “MKIVSKSSPLPLHYQLKMILQEMIENEELLPGDTIPTERELCEIQKISRMTVNKAILSLVSEGILYREQGKGTFVAKKKEKQQLTKLKSFTEEMREKGLNISTKILSFEIKTATKHISTLLELPHKKMKVIEIIRLRLTDNDPSAIETVVLPLYLFSDMTKEVIDGKSLYNTFREKYGYEPTKAKQTIEPIMLTDYEAKFLNQVGNSLALLFRRLTYRKDGVPIEYTKSIYRSEKYKYEVILT”, “not soluble”.

For “MMDHAHDSCSPTLRRDLEVTGQLQPEKAVDLAAPHEGKVANITKVTSSNMEHTITQASKAKEVVVLIGHSLLPTFQDLEKDILHFQAGNKGRFSVAIVDPDRSADVVARFRPKQIPVAYVVKDGASIAEFNSLNKEPVAQWLDHFVSRETIPNEKEGDVDKQIDPRLWRAAELVNAGDFRAALALYEQLPQDATVKRAHAAVSVLARMSVADRGEDPIEKSRRDPDDVNKALAAADMYVLMNQPDTALAHLAALLPKPEAARRIVELLNLFDPLDLVALEIRAQVGNAMS”, the “soluble on expression in E. coli” value is given as “not soluble”. The same measure for “MVRRIAVFSLYNEHGIADDYVIFLLEKLREFVERIVVVSNGNLSKLSEIAIKASCDQLLVRENVGFDVWGYKTGIDAVGFDALSEYDELILLNDTCYGPLFPFSEMFSEMERRDCDFWGSAAHSKMTPNPFTGTGHLPRHLTANFIAVREKMLKSRAFKTYWENLPAIKTYIDAIMLHESQFTKHFTDLGYSAEAYVDPDKYGSHYPAFINVDETIINRFPLLKRRPFFHDPTFLNAQGIDLPRALRVLEETSDYDLNLIWRNVLRTSELRNLNTNAALMSVLPDERAKDDDAPSDYGKIAVCAHIYYTDMLEEILALTGNIPVPYDFIATTDTPDKKAEIEATLAKRPGVKNVIVRVVEKNRGRDMSSLFISLRDLLVDDRYDLVCRLHTKKSPQVQASRSNLFKRHMLENLLNTRGYVHNVLDMFHDNPSVGLAVPPVVHISYPTMGHAWFFNRPKVEETARLLNIKVKFDHDTPVAAYGTMFWFRPRALRKMFEHKWKWEDFNAEPNHVDGGLAHVLERLIAYAAQDAGYLEHHHHHH”: “soluble”; for “MGSDKIHHHHHHMENYKERKLIAIDLDGTTLQSDGRSISRYTKYIFKQVESLGHIICITTGRPFRMSLDVYRELELTSPVINFNGALISMPNDKNWEHTKSYYIDRSFIFDLLRHQQNFNLHFFAVEYRRKFFLNTFRNVEPKLFGVEKFQPYNRLRADRVTENPHAVLLSTRQKDKLALAEEMKRHYNGKIDVGVWGGPNGILEVVPKGISKASGLNHLLKVLDIPLENLIAFGDEHNDIEMFKLAPNAYAMKNASARLTPYASEILPWTNDEDGVARQLEKLFLTPNK”: “not soluble”. Under “MDSEGASSESSSSGDQLEKWTEEQDELKKKLIAYDDFTWKLSSSTELSQGSEILKYVGGVDMSFCKEDSSVACACLVVLELPSLRVVHHDFSLLRLHVPYVPGFLAFREAPVLLQILQKMRDEKHPFYPQVLMVDGNGILHPRGFGLACHLGVLAHLPTIGVGKNLHHVDGLNQSEVKQSLQLQINEHEQTITLVGNSGITWGVGFRPTLSSLKPIYVSVGHRISLDSAVEVVKITCKYRVPEPIRQADIRSRAYLQKHQTESFKELAVRPPDQTEP” stands “soluble”.
